# Entries after “also recorded” stand apart in the source; their conditions may differ.
# B1: BDNF: brain-derived neurotrophic factor (protein, UniProt P23560 19-247, looked up)
# Neurotrophic factor BDNF …: APMKEANIRGQGGLAYPGVRTHGTLESVNGPKAGSRGLTSLADTFEHVIEELLDEDQKVRPNEENNKDADLYTSRVMLSSQVPLEPPLLFLLEEYKNYLDAANMSMRVRRHSDPARRGELSVCDSISEWVTAADKKTAVDMSGGTVTVLEKVPVSKGQLKQYFYETKCNPMGYTKEGCRGIDKRHWNSQCRTTQSYVRALTMDSKKRIGWRFIRIDTSCVCTLTIKRGR
# B2: AP-OM: alkaline phosphatase (AP)-oncomodulin fusion protein (protein)
# chain: MSITDILSAEDIAAALQECQDPDTFEPQKFFQTSGLSKMSASQVKDIFRFIDNDQSGYLDGDELKYFLQKFQSDARELTESETKSLMDAADNDGDGKIGADEFQEMVHS
# modifications: left off: large carriers; small tags and cut ends
# notes: alkaline phosphatase (AP)-oncomodulin fusion protein
# B3: CNTF: ciliary neurotrophic factor (protein, UniProt P26441 1-200, looked up)
# Ciliary neurotrophic factor: MAFTEHSPLTPHRRDLCSRSIWLARKIRSDLTALTESYVKHQGLNKNINLDSADGMPVASTDQWSELTEAERLQENLQAYRTFHVLLARLLEDQQVHFTPTEGDFHQAIHTLLLQVAAFAYQIEELMILLEYKIPRNEADGMPINVGDGGLFEKKLWGLKVLQELSQWTVRSIHDLRFISSHQTGIPARGSHYIANNKKM
# B4: oncomodulin: 11.7-kDa Ca2+-binding protein secreted by macrophages; recombinant rat oncomodulin expressed in Escherichia coli (protein)
# chain: SITDILSAEDIAAALQECQDPDTFEPQKFFQTSGLSKMSASQVKDIFRFIDNDQSGYLDGDELKYFLQKFQSDARELTESETKSLMDAADNDGDGKIGADEFQEMVHS
# How the values were obtained:
# RGCs [1] = experiment: axon outgrowth in primary adult retinal cultures; assay type: cell-based, rat
# Procedure: Protein A beads (Sigma) were incubated with either rabbit anti-OM antiserum (Swant) or normal rabbit serum (Invitrogen) for 16 h at 4° C. After extensive rinsing, beads with adsorbed IgGs were mixed with MCM (1 ml 10× concentrate, collected 8 h after zymosan treatment) for 24 h at 4° C. and then pelleted down by centrifugation. We tested 5 μl of the supernatants or untreated MCM for oncomodulin by western blotting. Bioactivity of immune-depleted and control MCM was tested in dissociated RGC cultures as described below at a 1:4 dilution, a concentration found to give a near-maximal response.
# (§1) Adult rat retinal cultures were prepared as described^21. […] One week later, retinas were dissected, dissociated, and the cells plated in defined, serum-free medium. Axon growth (% RGCs extending axons ≧30 μm, ≧70 μm or ≧140 μm in length) was evaluated after 3 d in quadruplicate samples in a blinded fashion. All experiments were repeated at least three separate times. In some instances, cells were immunostained with GAP-43 antibody (1:500, Chemicon).
# RGCs [2] = experiment: ligand binding assay with AP-oncomodulin fusion proteins on immunopurified RGCs; design: species or system rat
# Procedure: Adult rat retinal cells were dissociated as above and then isolated by immunopanning^31,46 using antibody MAC1 followed by an antibody to Thy1 (Chemicon). Purity was ˜98% based upon counting Fluorogold-labeled versus total cells. RGCs, treated with or without forskolin, were lightly fixed after 14-16 h in culture (4% paraformaldehyde (PFA), 6 min) before binding assays.
# Binding assays were carried out as described^48 with slight modifications. Briefly, lightly fixed, immunopurified RGCs were incubated with AP-OM or AP (37° C., 24 h).
# After extensive rinsing, cells were fixed again, heated (65° C., 90 min) to destroy endogenous AP and incubated with nitro blue tetrazolium chloride/5-bromo-4-chloro-3-indoyl phosphate toluidine salt (BCIPINBT). In some instances, AP-OM or AP (control), with or without forskolin, was added to the cultures before the initial fixation. Absorbance was measured with Image J software (US National Institutes of Health) and corrected by subtracting the level of AP binding. Binding curves and Scatchard plots were generated using Prism software. For displacement studies, varying concentrations of unlabeled oncomodulin were added to cultures after the equilibrium binding of 40 mM AP-OM at 37° C. for 24 h.
# RGCs [3] = experiment: RGC survival in primary retinal cultures; assay type: cell-based, rat; details: retinal culture
# Procedure: as §1
# DRG neurons [4] = experiment: neurite outgrowth of DRG neurons cultured after intraganglionic injection in vivo; assay type: cell-based, rat
# Procedure: (§2) L4-L5 DRGs from adult male Sprague-Dawley rats (250-300 g) were injected with 5 μl of saline or oncomodulin (200 ng μl^−1). After 7 d, injected ganglia were dissected and single-cell suspensions were prepared as described^50. Cells were cultured on laminin (Sigma) with or without CSPGs (Chemicon) for 20 h or 40 h. In some cases, chondroitinase ABC (0.5 U ml^−1, Seikagaku) was added. Neurite outgrowth was visualized by Tuj1 antibody to class III β-tubulin (1:5,000, Babco) and quantified in quadruplicate samples by a blinded observer. In other studies, L4-L5 DRG neurons were cultured in the presence of absence of oncomodulin, mannose and/or forskolin in RPMI-1640 to limit spontaneous outgrowth. Cells were fixed and immunostained after 3 d and evaluated for outgrowth.
# P-CREB = P-CREB immunostaining in RGCs after intravitreous injection; assay type: in vivo, rat; details: 2 h after intravitreous injection, 1 μg μl^−1, 5 μl
# Procedure: To investigate the immediate effects of oncomodulin in vivo, rats received an intravitreous injection of the protein (1 μg μl^−1, 5 μl volume, n=6) and were killed 2 h later. Retinal sections were immunostained to detect the phosphorylated form of the transcriptional activator CREB (antibody to P-CREB, 1:100, Cell Signaling Technology). Fluorescent photomicrographs were taken 2 mm from the optic nerve head.
# DRG neurons [5] = experiment: neurite outgrowth of naive DRG neurons in culture; assay type: cell-based, rat; details: 3 d culture
# Procedure: as §2
# optic nerve = optic nerve regeneration in vivo after nerve crush, intraocular PLGA microspheres; design: species or system rat; details: 2 weeks, agent by itself
# Procedure: Microspheres were prepared from lyophilized oncomodulin or sp-8-Br-cAMPs (Sigma) with PLGA using the solvent evaporation method of single emulsion^49. To measure the rate of protein release in vitro, 10 mg of oncomodulin-containing beads were incubated in phosphate-buffered saline (PBS; 37° C.). Supernatants were collected every 3 d and analyzed on western blots.
# Optic nerve surgery was carried out on male Fisher rats (200-250 g) as described^18. Three days after nerve crush, rats received intraocular injections of blank microspheres or microspheres containing oncomodulin, sp-8-Br-cAMPs or both, in 10 μl saline after the same fluid volume was withdrawn from the eye (n=8-12 per group). Rats were killed 2 weeks later and their retinas, with optic nerves attached, were prepared as described^18,21. Axon growth was evaluated by GAP-43 immunostaining in the optic nerve at distances of 500 μm and 1 mm from the injury site^18,21. The length of the longest axon was measured in each case and averaged across all cases within each group.
# [6] = in the absence of forskolin and mannose
# [7] = in the presence of forskolin and mannose, 3 d, BDNF 50 ng ml^−1, CNTF 10 ng ml^−1, GDNF 50 ng ml^−1
molecule,measurement,setting,value
B1,axon outgrowth from RGCs in culture,RGCs [1]; [6],Neither oncomodulin nor any of the other factors stimulated outgrowth
same,axon outgrowth from RGCs in culture,RGCs [1]; [7],ineffective
B2,binding to RGCs,RGCs [2]; [cAMP]i elevated with forskolin,bound strongly
same,binding to RGCs,RGCs [2]; basal conditions (no forskolin),Neither AP-OM nor AP showed appreciable binding
same,binding to RGCs,"RGCs [2]; untreated RGCs permeabilized after light fixation, no forskolin",bound even without previous forskolin treatment
B3,axon outgrowth from RGCs in culture,RGCs [1]; [6],Neither oncomodulin nor any of the other factors stimulated outgrowth
same,axon outgrowth from RGCs in culture,RGCs [1]; [7],increased axon growth
B4,RGC survival,RGCs [3],Neither oncomodulin nor any other factor enhanced RGC survival above baseline
same,concentration at which binding saturated,RGCs [2]; AP-OM binding to RGCs,greater than 100 nM
same,Kd,"RGCs [2]; AP-OM, forskolin-treated RGCs, Scatchard plot, read-out: dissociation constant (Kd), binding to RGCs",28 ± 5 nM
same,IC50,"RGCs [2]; displacement of AP-OM by unlabeled oncomodulin, read-out: IC50, reversibility of binding to RGCs",~30 nM
same,displacement of AP-OM from RGCs,RGCs [2]; excess unlabeled competitor (100-fold),displaced AP-OM from RGCs
same,DRG neurite outgrowth on nonpermissive substrate,DRG neurons [4]; CSPG substrate,promoted some outgrowth; also recorded: stimulated some outgrowth
same,DRG neurite outgrowth on permissive substrate,"DRG neurons [4]; exposed in vivo 1 week, poly-D-lysine+laminin, vs vehicle",considerably greater outgrowth
same,level of P-CREB in RGCs,P-CREB,markedly increased
same,outgrowth of previously untreated DRG neurons,DRG neurons [5],acts on previously untreated DRG neurons
same,EC50,"RGCs [1]; RGCs, forskolin and mannose present, read-out: effective concentration for half-maximum response (EC50), axon outgrowth",~3.8 nM
same,axon outgrowth from RGCs in culture,RGCs [1]; [6],Neither oncomodulin nor any of the other factors stimulated outgrowth
same,axon outgrowth from RGCs in culture,RGCs [1]; [7],nearly doubled the amount of outgrowth
same,axon regeneration in optic nerve,optic nerve,had no effect

# Reference: patent publication US20090156496A1, “METHODS AND COMPOSITIONS FOR TREATING AND PREVENTING PERIPHERAL NERVE DAMAGE” (CHILDREN'S MEDICAL CENTER CORPORATION, INC., priority 2006, published 2009)
